According to publication PMC8857273:

Key:
[1] = test system: T1, His6-SUMO-MucR1 (Sinorhizobium fredii CCBAU45436 (SF45436)), ORF:2d010df8; assay: EMSA; conditions: EMSA: 25 mM Tris pH 7.5, 100 mM KCl, 5 mM MgCl2, 5% glycerol, 0.05% dodecyl maltoside, 0.5 mg/mL BSA, 0.1 mg/mL sonicated salmon sperm DNA; room temperature …
T1 sequence: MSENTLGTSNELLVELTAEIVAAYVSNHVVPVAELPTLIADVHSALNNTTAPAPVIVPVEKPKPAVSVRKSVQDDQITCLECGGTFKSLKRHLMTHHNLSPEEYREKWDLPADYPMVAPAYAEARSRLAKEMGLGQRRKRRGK

[2] = test system: T2, His6-SUMO-MucR2 (Sinorhizobium fredii CCBAU45436 (SF45436)), ORF:a672ea6f; assay: EMSA; conditions: EMSA: 25 mM Tris pH 7.5, 100 mM KCl, 5 mM MgCl2, 5% glycerol, 0.05% dodecyl maltoside, 0.5 mg/mL BSA, 0.1 mg/mL sonicated salmon sperm DNA; room temperature …
T2 sequence: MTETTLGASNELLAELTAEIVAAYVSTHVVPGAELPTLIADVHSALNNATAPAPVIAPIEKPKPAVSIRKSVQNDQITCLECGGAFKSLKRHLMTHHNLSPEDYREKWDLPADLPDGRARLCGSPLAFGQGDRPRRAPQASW

CATATTAGATTCGGAAGGACCGACGACGCCCCTCGATCGCTGCCAGTCCACTGACGATTGTTTTGAAGTGTTCAGCTTCCTGGAGATATAACTTCCAAAAGCCGAAATAAAGTTTGGATCATCTTTGATTTTATACAGTTCTCTGCTACTGCCAGAGCGTCTCCGACTTGGTGCATTTTAGCAACAGGCGTCATTCGAAAGTAAAGCTCACTCATCTATATTCGAGCGATTGGCGGCATTGAAGGCACAG (double strand) [visN promoter probe (250 bp)]
binding [1]: binds | binding [2]: no binding
